# From patent publication US20230192890A1 (published 2023)
# T1: Ala mutant SEQ ID NO: 35 (human)
# T1 peptide: EENMDDQWAQDEMEIGY
# T2: Ala mutant having 3-amino acid substitution, SEQ ID NO: 45 (human)
# T2 peptide: EENAAAQWMQDEMEIGY
# T3: Ala mutant SEQ ID NO: 34 (human)
# T3 peptide: EENMDDQAMQDEMEIGY
# T4: Ala mutant having 3-amino acid substitution, SEQ ID NO: 46 (human)
# T4 peptide: EENMDDAAAQDEMEIGY
# T5: Ala mutant SEQ ID NO: 32 (human)
# T5 peptide: EENMDAQWMQDEMEIGY
# Key:
# [1] = target: T6, full-length recombinant human PAD4 (human, UniProt Q9UM07 1-663); test: Biacore T200, human PAD4 as analyte
# T6 construct: also called peptidylarginine deiminase 4
# [2] = target: T6, full-length recombinant human PAD4; test: Biacore T200, antibody captured by anti-human antibody, human PAD4 as analyte
# Description: The humanized anti-PAD4 antibodies derived from G8 and H7 were subjected to Biacore (GE Healthcare, Biacore T200) assay to evaluate their affinity. At that time, the combination of the frameworks was such that the H-chain framework was H4.00 and the L-chain framework was L4.29. The class of each antibody used was IgG1κ. Full-length recombinant human PAD4 was used as an antigen. A Human Antibody Capture kit (GE Healthcare, BR-1008-39) was used for the affinity assay. Specifically, in accordance with the standard protocol provided by the manufacture, NHS/EDC was used and an amine coupling method, in which a free carboxyl group is fixed on a surface of a CM5 chip, was used to immobilize a rabbit anti-human polyclonal antibody on the surface of a CM5 chip. Next, the humanized anti-PAD4 antibodies were each captured by the rabbit anti-human polyclonal antibody. Human PAD4 at each concentration was subjected to Biacore T200 measurement to create a kinetic sensorgram.
# [3] = target: T6, full-length recombinant human PAD4; test: ELISA, human PAD4 on plate, antibody 1 ug/mL
# Ala mutant SEQ ID NO: 35 = target: T1, Ala mutant SEQ ID NO: 35; test: ELISA, peptide on plate (10 ug/mL)
# [4] = target: T2, Ala mutant having 3-amino acid …; test: ELISA, peptide on plate (10 ug/mL)
# Ala mutant SEQ ID NO: 34 = target: T3, Ala mutant SEQ ID NO: 34; test: ELISA, peptide on plate (10 ug/mL)
# [5] = target: T4, Ala mutant having 3-amino acid …; test: ELISA, peptide on plate (10 ug/mL)
# [6] = target: T6, full-length recombinant human PAD4; test: ELISA, human PAD4 on plate, antibody 0.0625 ug/mL
# [7] = target: T6, full-length recombinant human PAD4; test: ELISA, human PAD4 on plate, antibody 6.104E-05 ug/mL
# [8] = target: full-length recombinant human or mouse PAD4 (Example 4; which of the two is not told for the result); test: cell-based or functional assay
# [9] = target: T6, full-length recombinant human PAD4; test: ELISA, human PAD4 on plate, antibody 0.0009766 ug/mL
# [10] = target: T6, full-length recombinant human PAD4; test: ELISA, human PAD4 on plate, antibody 0.25 ug/mL
# [11] = target: T6, full-length recombinant human PAD4; test: ELISA, human PAD4 on plate, antibody 0.015625 ug/mL
# [12] = target: T6, full-length recombinant human PAD4; test: ELISA, human PAD4 on plate, antibody 0.0039063 ug/mL
# [13] = target: T6, full-length recombinant human PAD4; test: ELISA, human PAD4 on plate, antibody 0.0002441 ug/mL
# Ala mutant SEQ ID NO: 32 = target: T5, Ala mutant SEQ ID NO: 32; test: ELISA, peptide on plate (10 ug/mL)
# T6 sequence (Q9UM07 whole entry): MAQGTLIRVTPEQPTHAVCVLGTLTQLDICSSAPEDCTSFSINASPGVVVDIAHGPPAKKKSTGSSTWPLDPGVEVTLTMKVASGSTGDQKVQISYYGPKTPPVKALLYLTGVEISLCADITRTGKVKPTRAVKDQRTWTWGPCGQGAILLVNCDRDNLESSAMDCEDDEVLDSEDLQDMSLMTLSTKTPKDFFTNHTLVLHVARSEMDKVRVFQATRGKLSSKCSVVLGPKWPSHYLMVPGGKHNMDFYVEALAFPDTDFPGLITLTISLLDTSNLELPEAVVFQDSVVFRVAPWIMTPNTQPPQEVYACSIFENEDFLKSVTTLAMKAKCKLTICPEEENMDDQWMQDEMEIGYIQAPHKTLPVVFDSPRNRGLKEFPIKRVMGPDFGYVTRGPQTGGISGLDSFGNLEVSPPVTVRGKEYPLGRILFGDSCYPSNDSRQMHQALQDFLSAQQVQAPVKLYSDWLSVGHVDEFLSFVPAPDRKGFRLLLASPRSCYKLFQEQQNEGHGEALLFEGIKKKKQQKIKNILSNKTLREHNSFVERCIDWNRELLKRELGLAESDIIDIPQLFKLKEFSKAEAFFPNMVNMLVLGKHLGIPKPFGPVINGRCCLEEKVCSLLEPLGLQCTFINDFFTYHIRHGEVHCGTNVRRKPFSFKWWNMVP
Binder,Kd [1] [nM],kon [2] [M⁻¹ s⁻¹],absorbance 490 nm/630 nm [3] [OD],absorbance 490 nm/630 nm (Ala mutant SEQ ID NO: 35) [OD],absorbance 490 nm/630 nm [4] [OD],absorbance 490 nm/630 nm (Ala mutant SEQ ID NO: 34) [OD],absorbance 490 nm/630 nm [5] [OD],absorbance 490 nm/630 nm [6] [OD],absorbance 490 nm/630 nm [7] [OD],Relative citrullination activity [8],absorbance 490 nm/630 nm [9] [OD],absorbance 490 nm/630 nm [10] [OD],absorbance 490 nm/630 nm [11] [OD],absorbance 490 nm/630 nm [12] [OD],absorbance 490 nm/630 nm [13] [OD],absorbance 490 nm/630 nm (Ala mutant SEQ ID NO: 32) [OD]
"Humanized Ab #G8-H4.00/L4.29 (IgG1κ) (antibody, V domains shown, Full-length heavy and light chains; also called humanized anti-PAD4 antibody derived from G8; G8 VH H4.00 / VL L4.29) VH: not shown VL: SYELTQPPSVSVSPGQTARITCSGGNRNYYYGWYQQKPGQAPVTVIYANDKRPSGIPERFSGSNSGSTTTLTISGVQAEDEADYYCGTADTGKYVFGGGTKLTVLG",≤ 9,,,,,,,,,,,,,,,
"A11 (antibody, IgG1, V domains shown, Chicken variable regions in mouse chimeric antibody (IgG1) expression vectors; also called anti-PAD4 antibody A11; A11 etc) VH: AVTLDESGGGLQTPGGALSLVCKASGFDFSSYGMGWMRQAPGKGLEYVAAIRNDGSWTGYGAAVKGHATISRDNGQSTVRLQLNNLRAEDTGTYYCAKTTGSRGGSIDAWGHGTEVIVS VL: ASTQPSSVSANLGGTVEITCSGGGRYYYGWYQQKSPGSAPVTVIYANDKRPSDIPSRFSGSKSGSTGTLTITGVQAEDEAVYFCGSAETSSYVFGAGTTLTVL",≤ 9,,2.15,0.023,0.039,0.021,0.043,2.15,0.063,64 relative to PBS = 100,0.511,2.11,2.08,1.31,0.206,
"G8 (antibody, IgG1, V domains shown, Chicken variable regions in mouse chimeric antibody (IgG1) expression vectors; also called anti-PAD4 antibody G8; A11 etc) VH: AVTLDESGGGLQTPGGALSLVCKASGFTFSTYAMGWMRQAPGKGLEYVAAIRNDGSWTGYGAAVKGRATILRDNGQSTVRLQLSNLRAEDTGTYYCAKYTGSSGGSIGAWGHGTEVIVS VL: ASTQPSSVSANLGGTVEITCSGGNRNYYYGWYQQKSPGSAPVTLIYANDKRPSNIPSRFSGSKSGSTGTLTITGVQAEDEAVYFCGTADTGKYVFGAGTTLTVL",≤ 9,,2.12,0.233,0.065,0.04,,2.12,0.1,63 relative to PBS = 100,0.544,2.1,2.08,1.34,0.184,0.083
"G9 (antibody, IgG1, V domains shown, Chicken variable regions in mouse chimeric antibody (IgG1) expression vectors; also called anti-PAD4 antibody G9; A11 etc) VH: AVTLDESGGGLQTPGGALSLVCKASGFTFSTYAMGWMRQAPGKGLEYVAAIRNDGSWTGYGAAVKGRATILRDNGQSTVRLQLSNLRAEDTGTYYCAKYTGSSGGSIGAWGHGTEVIVS VL: AVTQPASVSANLGGTVEITCSGGGRYYYGWYQQKSPGSAPVTVIYANDKRPSDIPSRFSGSKSGSTGTLTITGVQAEDEAVYFCGSAETSSYVFGAGTTLTVL",≤ 9,,2.1,0.253,0.019,0.038,,2.11,0.082,68 relative to PBS = 100,0.534,2.08,2.07,1.36,0.187,0.039
"E9 (antibody, IgG1, V domains shown, Chicken variable regions in mouse chimeric antibody (IgG1) expression vectors; also called anti-PAD4 antibody E9; A11 etc) VH: AVTLDESGGGLQTPGGTLSLVCKGSGFTFSSYGMGWMRQAPGKGLEYVAAIRNDGSWTGYGSAVKGRATISRDNGQSTVRLQLNNLRAEDTATYYCAKTSGSSGGSVDAWGHGTEVIVS VL: ASTQPSSVSANLGGTVEITCSGGGRYYYGWYQQKSPGSAPVTVIYANDKRPSDIPSRFSGSKSGSTGTLTITGVQAEDEAVYFCGSAETSSYVFGAGTTLTVL",≤ 9,,2.11,0.017,0.022,0.047,0.027,2.12,0.07,59 relative to PBS = 100,0.489,2.08,2.08,1.36,0.176,

# The remaining lines, values ahead:
Kd [1] [nM],kon [2] [M⁻¹ s⁻¹],absorbance 490 nm/630 nm [3] [OD],absorbance 490 nm/630 nm (Ala mutant SEQ ID NO: 35) [OD],absorbance 490 nm/630 nm [4] [OD],absorbance 490 nm/630 nm (Ala mutant SEQ ID NO: 34) [OD],absorbance 490 nm/630 nm [5] [OD],absorbance 490 nm/630 nm [6] [OD],absorbance 490 nm/630 nm [7] [OD],Relative citrullination activity [8],absorbance 490 nm/630 nm [9] [OD],absorbance 490 nm/630 nm [10] [OD],absorbance 490 nm/630 nm [11] [OD],absorbance 490 nm/630 nm [12] [OD],absorbance 490 nm/630 nm [13] [OD],absorbance 490 nm/630 nm (Ala mutant SEQ ID NO: 32) [OD],Binder
≤ 9,613000,,,,,,,,,,,,,,,"Humanized Ab #H7-H4.00/L4.29 (IgG1κ) (antibody, V domains shown, Full-length heavy and light chains; also called humanized anti-PAD4 antibody derived from H7) VH: not shown VL: SYELTQPPSVSVSPGQTARITCSGGSGRYYYGWYQQKPGQAPVTVIYSSTHRPSGIPERFSGSNSGSTTTLTISGVQAEDEADYYCGTADSSSYVFGGGTKLTVLG"
≤ 9,,2.11,0.015,0.018,0.042,0.083,2.12,0.075,69 relative to PBS = 100,0.437,2.07,2.01,1.16,0.166,0.035,"G6 (antibody, IgG1, V domains shown, Chicken variable regions in mouse chimeric antibody (IgG1) expression vectors; also called anti-PAD4 antibody G6; A11 etc) VH: AVTLDESGGGLQTPGGALSLVCKASGFTFSSYGMEWVRQAPGKGLEYVAAIRNDGSWTGYGAAVKGRATISRDDGQSTLRLQLNNLRAEDTATYYCAKTTGSSGGSIDAWGHGTEVIVS VL: ASTQPSSVSANLGETVKITCSGGGNYYYGWYQQKSPGSAPVTLIYANDKRPSNIPSRFSGSKSGSTGTLTITGVQAEDEAVYFCGTADTGKYVFGAGTTLTVL"
≤ 9,,2.11,0.065,0.016,0.066,0.044,2.12,0.111,35 relative to PBS = 100,0.537,2.11,2.07,1.35,0.217,0.033,"H7 (antibody, IgG1, V domains shown, Chicken variable regions in mouse chimeric antibody (IgG1) expression vectors; also called anti-PAD4 antibody H7; A11 etc) VH: AVTLDESGGGLQTPGGALSLVCKASGFTFSTYAMGWMRQAPGKGLEYVAAIRNDGSWTGYGAAVKGRATILRDNGQSTVRLQLSNLRAEDTGTYYCAKYTGSSGGSIGAWGHGTEVIVS VL: ASTQPSSVSANPGGTVEITCSGGSGRYYYGWYQQKSPGSAPVTVIYSSTHRPSNIPSRFSGSKSGSTATLTITGVQAEDEAVYFCGTADSSSYVFGAGTTLTVL"
